We go through one protein from patent publication US20050119464.

Data set [1] has as its target Fc-fragment generated by papain cleavage, including 12 amino acids of the hinge region.
Another data set addresses T1, H-kininogen, P01042.
T1 chain: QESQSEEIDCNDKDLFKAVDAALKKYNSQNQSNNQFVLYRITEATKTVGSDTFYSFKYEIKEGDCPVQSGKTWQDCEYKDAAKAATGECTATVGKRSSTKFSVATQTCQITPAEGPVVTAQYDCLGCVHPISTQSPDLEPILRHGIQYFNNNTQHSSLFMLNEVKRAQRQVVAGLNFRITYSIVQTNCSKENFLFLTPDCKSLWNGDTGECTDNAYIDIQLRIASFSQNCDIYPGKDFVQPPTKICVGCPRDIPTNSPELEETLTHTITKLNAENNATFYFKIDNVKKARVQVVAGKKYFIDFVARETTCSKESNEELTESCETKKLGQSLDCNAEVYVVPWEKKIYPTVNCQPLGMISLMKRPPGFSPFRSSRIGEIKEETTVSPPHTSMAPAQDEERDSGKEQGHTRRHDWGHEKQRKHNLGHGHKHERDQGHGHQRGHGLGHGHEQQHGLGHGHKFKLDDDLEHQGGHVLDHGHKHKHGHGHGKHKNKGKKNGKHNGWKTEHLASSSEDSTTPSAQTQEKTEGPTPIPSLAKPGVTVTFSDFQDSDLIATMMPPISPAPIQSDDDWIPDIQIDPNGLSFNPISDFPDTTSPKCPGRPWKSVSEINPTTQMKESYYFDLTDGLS

The target of another data set is T2, Z-LVG-CHN2.
T2 chain: LVG

Data set [2] deals with T3, antimicrobial peptide LL-37, P49913.
T3 chain: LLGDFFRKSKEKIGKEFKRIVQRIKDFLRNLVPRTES

In data set [3] the target is T4, cystatin C from chicken, P01038.
T4 chain: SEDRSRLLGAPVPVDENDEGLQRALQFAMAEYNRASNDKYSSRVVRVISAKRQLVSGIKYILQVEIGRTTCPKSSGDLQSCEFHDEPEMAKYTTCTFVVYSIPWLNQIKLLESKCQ

Data set [4] concerns the target T5, cystatin C from mouse, P21460.
T5 chain: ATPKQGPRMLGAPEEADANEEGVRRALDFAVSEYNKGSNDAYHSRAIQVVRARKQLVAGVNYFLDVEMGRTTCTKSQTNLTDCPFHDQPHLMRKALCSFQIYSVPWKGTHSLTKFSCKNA

The target of data set [5] is T6, cystatin C from rat, P14841.
T6 chain: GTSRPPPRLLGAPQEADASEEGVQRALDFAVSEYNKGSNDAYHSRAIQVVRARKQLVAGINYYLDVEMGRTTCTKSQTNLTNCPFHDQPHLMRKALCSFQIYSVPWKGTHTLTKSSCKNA

The target in the next data set is T7, cystatin C, P01034.
T7 chain: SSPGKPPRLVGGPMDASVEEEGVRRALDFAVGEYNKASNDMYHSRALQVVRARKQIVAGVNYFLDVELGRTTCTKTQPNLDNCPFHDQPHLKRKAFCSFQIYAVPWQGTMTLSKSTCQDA

The target of another data set is T8, cystatin D, P28325.
T8 chain: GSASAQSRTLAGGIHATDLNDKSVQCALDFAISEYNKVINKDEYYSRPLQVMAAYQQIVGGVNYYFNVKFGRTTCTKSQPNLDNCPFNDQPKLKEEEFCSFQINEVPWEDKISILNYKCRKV

For another data set, the target named is T9, fibrinogen, P02671.
T9 chain 1: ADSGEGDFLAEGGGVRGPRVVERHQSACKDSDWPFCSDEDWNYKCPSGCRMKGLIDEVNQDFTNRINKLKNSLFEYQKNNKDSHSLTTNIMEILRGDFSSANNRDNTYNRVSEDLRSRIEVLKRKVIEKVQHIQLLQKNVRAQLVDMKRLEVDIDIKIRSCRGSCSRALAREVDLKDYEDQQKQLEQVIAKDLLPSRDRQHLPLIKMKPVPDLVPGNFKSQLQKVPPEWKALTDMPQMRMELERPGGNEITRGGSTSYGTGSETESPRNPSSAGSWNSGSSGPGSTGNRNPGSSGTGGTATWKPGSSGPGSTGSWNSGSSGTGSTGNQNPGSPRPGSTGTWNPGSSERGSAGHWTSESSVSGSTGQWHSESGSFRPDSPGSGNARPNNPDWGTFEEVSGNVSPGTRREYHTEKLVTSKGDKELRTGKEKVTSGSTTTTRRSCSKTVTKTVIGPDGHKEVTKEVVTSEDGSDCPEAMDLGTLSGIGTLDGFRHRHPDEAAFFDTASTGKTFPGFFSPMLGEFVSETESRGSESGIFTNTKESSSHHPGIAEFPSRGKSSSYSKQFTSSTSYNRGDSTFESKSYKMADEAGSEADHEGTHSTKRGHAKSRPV
T9 chain 2: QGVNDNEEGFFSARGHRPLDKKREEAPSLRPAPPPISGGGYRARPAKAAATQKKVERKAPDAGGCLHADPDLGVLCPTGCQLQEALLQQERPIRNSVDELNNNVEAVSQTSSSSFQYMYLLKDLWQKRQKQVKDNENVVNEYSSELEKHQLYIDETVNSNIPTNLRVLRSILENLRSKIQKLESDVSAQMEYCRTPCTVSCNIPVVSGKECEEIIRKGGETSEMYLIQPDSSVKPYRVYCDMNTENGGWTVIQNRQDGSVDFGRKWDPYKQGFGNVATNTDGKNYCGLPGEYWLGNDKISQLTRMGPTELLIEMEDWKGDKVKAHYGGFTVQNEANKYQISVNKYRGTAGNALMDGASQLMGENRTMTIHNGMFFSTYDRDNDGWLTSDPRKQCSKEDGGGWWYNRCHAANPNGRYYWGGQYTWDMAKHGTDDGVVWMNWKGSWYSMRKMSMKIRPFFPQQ
T9 chain 3: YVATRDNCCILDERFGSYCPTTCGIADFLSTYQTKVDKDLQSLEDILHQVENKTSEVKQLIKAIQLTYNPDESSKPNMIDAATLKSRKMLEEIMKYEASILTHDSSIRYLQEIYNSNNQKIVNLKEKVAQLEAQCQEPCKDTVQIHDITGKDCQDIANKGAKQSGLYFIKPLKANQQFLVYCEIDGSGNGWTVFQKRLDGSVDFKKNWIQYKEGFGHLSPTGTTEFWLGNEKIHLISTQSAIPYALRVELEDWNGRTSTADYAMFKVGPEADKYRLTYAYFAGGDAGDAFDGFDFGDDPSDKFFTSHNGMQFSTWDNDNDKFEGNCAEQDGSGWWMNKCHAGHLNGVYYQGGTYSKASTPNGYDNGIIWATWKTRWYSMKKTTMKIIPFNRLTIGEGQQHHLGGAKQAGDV

The target of data set [6] is synthetic peptide homologous to amino acids 234 to 241 of human IgG.
Data set [7] addresses the different subclasses of IgG.

Chain of α 1-antitrypsin, P01009 (P01009 whole entry, looked up): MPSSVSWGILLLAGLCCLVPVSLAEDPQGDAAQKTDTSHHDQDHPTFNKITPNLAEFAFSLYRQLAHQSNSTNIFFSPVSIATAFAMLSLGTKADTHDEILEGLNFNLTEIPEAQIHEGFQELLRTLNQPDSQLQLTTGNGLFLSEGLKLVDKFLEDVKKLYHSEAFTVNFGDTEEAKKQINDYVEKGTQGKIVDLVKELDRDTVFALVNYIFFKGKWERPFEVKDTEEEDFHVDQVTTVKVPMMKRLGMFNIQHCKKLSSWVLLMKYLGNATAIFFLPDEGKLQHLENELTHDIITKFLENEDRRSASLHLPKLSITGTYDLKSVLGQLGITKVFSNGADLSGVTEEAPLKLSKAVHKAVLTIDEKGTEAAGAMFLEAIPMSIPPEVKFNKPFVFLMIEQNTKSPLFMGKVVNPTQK
Chain of fibronectin, P02751 (P02751 other isoform, or with tags, fused parts or gaps): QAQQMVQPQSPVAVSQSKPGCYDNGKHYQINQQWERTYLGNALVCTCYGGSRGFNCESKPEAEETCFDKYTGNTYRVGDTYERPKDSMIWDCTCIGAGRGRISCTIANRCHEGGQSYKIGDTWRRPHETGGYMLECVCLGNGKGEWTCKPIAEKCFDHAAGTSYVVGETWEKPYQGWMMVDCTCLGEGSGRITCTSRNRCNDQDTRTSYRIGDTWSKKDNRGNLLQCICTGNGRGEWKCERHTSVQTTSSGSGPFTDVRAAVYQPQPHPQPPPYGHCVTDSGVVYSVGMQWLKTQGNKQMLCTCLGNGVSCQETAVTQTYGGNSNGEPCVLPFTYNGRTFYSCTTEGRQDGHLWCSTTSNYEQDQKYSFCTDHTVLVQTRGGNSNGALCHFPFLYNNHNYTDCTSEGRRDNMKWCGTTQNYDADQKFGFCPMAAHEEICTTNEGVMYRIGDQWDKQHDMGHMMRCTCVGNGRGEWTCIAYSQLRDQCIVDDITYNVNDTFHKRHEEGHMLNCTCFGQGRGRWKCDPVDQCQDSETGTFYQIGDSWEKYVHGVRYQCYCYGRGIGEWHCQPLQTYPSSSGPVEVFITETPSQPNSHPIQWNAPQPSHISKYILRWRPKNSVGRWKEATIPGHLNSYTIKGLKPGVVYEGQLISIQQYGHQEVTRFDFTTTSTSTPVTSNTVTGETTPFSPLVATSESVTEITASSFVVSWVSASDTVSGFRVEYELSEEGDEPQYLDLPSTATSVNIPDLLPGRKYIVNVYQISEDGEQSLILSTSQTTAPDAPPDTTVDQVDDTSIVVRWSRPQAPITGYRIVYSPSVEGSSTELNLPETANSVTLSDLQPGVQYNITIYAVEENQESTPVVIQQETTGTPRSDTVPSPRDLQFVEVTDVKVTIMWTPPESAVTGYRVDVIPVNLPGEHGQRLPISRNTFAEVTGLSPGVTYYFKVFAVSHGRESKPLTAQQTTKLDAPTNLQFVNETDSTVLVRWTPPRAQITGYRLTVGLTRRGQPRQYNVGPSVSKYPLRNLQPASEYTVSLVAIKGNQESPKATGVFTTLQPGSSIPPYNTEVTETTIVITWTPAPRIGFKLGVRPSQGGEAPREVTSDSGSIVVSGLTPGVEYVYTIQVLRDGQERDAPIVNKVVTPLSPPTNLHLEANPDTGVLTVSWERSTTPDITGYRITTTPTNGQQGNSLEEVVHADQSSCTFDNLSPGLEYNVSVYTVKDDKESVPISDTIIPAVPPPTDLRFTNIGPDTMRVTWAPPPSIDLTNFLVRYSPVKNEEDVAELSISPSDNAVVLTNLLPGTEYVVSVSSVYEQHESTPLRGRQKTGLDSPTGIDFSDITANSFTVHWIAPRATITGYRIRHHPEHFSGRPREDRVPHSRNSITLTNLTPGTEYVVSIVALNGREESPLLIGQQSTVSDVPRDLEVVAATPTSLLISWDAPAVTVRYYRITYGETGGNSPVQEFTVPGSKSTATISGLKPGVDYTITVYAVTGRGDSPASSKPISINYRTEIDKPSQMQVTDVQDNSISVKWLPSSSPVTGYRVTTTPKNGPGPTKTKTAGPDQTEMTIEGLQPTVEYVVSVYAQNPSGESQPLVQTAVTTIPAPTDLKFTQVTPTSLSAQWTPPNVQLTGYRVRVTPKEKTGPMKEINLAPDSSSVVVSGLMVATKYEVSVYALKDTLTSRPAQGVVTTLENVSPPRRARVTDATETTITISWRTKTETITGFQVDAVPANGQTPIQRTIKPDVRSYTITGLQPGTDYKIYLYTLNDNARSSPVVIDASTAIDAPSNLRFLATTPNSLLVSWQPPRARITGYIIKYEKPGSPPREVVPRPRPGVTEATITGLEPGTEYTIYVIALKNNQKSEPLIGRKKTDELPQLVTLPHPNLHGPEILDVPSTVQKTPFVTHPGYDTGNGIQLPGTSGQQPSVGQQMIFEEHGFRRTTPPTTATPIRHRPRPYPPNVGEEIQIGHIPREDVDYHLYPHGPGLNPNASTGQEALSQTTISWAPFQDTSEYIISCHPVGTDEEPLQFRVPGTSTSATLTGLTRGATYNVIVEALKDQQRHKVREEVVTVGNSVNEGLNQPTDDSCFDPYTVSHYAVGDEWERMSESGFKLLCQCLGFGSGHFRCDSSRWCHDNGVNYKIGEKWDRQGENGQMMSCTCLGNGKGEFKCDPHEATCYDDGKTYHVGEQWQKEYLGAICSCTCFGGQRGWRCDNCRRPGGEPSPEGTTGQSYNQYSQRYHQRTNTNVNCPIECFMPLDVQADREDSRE
Chain of transferrin, P02787 (P02787 20-698): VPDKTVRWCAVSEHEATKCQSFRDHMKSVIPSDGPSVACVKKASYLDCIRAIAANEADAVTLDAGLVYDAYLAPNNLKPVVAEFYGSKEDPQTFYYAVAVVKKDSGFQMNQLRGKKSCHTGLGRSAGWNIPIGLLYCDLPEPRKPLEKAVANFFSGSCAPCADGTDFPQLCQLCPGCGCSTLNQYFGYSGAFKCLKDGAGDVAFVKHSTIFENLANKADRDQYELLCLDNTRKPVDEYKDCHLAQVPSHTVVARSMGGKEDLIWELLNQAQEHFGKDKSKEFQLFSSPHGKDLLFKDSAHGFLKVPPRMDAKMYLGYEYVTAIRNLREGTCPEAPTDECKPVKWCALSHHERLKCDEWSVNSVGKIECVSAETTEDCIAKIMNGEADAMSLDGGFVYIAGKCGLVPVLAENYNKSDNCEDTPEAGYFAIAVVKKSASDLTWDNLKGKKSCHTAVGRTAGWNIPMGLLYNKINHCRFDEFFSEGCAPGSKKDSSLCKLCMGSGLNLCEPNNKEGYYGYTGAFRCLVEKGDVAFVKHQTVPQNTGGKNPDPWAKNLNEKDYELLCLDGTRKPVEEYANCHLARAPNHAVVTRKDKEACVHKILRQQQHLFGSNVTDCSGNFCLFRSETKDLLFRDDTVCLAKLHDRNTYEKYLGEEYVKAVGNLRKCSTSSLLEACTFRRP
Chain of lactoferrin, P02788 (P02788 20-710): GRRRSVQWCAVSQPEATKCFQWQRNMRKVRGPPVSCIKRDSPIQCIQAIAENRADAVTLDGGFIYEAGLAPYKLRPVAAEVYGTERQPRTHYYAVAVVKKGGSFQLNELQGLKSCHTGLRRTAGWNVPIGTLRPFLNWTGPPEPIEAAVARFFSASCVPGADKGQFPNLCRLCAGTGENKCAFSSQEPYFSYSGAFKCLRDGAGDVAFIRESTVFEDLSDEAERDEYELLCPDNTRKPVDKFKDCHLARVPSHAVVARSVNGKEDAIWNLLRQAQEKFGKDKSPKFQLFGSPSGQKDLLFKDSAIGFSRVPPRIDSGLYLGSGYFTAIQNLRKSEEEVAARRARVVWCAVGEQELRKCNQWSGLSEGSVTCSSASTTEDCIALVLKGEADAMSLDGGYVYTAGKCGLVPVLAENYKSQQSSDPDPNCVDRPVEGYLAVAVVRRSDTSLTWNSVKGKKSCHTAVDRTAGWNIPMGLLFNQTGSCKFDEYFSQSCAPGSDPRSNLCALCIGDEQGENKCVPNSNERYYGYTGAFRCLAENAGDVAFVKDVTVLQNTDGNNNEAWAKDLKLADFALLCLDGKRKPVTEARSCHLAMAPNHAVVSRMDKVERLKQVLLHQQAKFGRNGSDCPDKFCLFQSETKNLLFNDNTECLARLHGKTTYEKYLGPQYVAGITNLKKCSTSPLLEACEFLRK

B1: IdeS (Immunoglobulin G-degrading enzyme of S. pyogenes), purified from culture supernatant of S. pyogenes strain AP1 (protein)
chain: DSFSANQEIRYSEVTPYHVTSVWTKGVTPPANFTQGEDVFHAPYVANQGWYDITKTFNGKDDLLCGAATAGNMLHWWFDQNKDQIKRYLEEHPEKQKINFNGEQMFDVKEAIDTKNHQLDSKLFEYFKEKAFPYLSTKHLGVFPDHVIDMFINGYRLSLTNHGPTPVKEGSKDPRGGIFDAVFTRGDQSKLLTSRHDFKEKNLKEISDLIKKELTEGKALGLSHTYANVRINHVINLWGADFDSNGNLKAIYVTDSDSNASIGMKKYFVGVNSAGKVAISAKEIKEDNIGAQVLGLFTLSTGQDSWNQTN
In the case of B1, in [1], the cleavage result is recorded as “a Fc-fragment generated by papain cleavage, including 12 amino acids of the hinge region is cleaved by IdeS”. The cleavage products entry with H-kininogen, P01042 is on record as “No cleavage products could be detected”; in the data set with albumin, P02768, “No cleavage products could be detected”; with aprotinin, P00974 it was “No cleavage products could be detected”; in data set [3], “No cleavage products could be observed”; in [4], “No cleavage products could be observed”; in [5], “No cleavage products could be observed”. In addition, the cleavage products result with cystatin C, P01034 is on record as “No cleavage products could be detected”; with cystatin D, P28325, “No cleavage products could be detected”; with fibrinogen, P02671, “No cleavage products could be detected”; in the data set with fibronectin, P02751, “No cleavage products could be detected”; with lactoferrin, P02788, “No cleavage products could be detected”; with laminin it was “No cleavage products could be detected”. The cleavage products result in the data set with transferrin, P02787 is listed as “No cleavage products could be detected”; with whole human plasma, “No cleavage products could be detected”; in the data set with α 1-antitrypsin, P01009, “No cleavage products could be detected”. Besides, the “cleavage of the peptide” value with Z-LVG-CHN2 is listed as “Neither was the synthetic peptide Z-LVG-CHN2, which inhibits IdeS activity, cleaved by excess IdeS”. In addition, the “degradation of the peptide” value in data set [2] and in data set [6] was “did not reveal any degradation of the peptides” each time. The IdeS digestion result in data set [7] is on record as “all were susceptible for IdeS digestion”.
